Measured values taken from EP4631972A1, “SITE-SPECIFIC COUPLED PEGYLATED INTERLEUKIN-2 MUTANT WITH RECEPTOR AFFINITY PREFERENCE AND USE THEREOF” (priority 2022, dated 2024).

Assays:
IL-2αβγ triple receptor = target: T1, IL-2αβγ triple receptor (Homo sapiens, UniProt P01589+P14784+P31785); assay: STAT5 reporter gene assay, activation of IL-2αβγ triple receptor in 293EC18/αβγ/JAK3/STAT5 cells; type: cell-based; settings: Example 3, Table 2 and Figure 3
T1 construct: Uniprot P01589 1Met-551Ile constructed into plasmid pcDNA3.1/zeo; Uniprot P14784 1Met-551Val constructed into plasmid pcDNA3.1(+); Uniprot P31785 1Met-551Thr was constructed into plasmid pcDNA3.1/zeo; expressed in transfected cells; host or cells: 293EC18 cells, transient co-transfection with pCMV/JAK3 and PGL4.52/STAT5RE
T1 sequence (P01589 22-272): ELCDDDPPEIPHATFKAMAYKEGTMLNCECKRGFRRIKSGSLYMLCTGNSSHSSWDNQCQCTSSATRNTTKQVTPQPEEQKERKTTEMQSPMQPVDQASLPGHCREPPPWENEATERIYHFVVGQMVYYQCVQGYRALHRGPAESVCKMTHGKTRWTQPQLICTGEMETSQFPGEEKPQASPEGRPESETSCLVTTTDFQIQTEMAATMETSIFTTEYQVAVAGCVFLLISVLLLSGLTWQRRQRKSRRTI
T1 sequence (P14784 27-551): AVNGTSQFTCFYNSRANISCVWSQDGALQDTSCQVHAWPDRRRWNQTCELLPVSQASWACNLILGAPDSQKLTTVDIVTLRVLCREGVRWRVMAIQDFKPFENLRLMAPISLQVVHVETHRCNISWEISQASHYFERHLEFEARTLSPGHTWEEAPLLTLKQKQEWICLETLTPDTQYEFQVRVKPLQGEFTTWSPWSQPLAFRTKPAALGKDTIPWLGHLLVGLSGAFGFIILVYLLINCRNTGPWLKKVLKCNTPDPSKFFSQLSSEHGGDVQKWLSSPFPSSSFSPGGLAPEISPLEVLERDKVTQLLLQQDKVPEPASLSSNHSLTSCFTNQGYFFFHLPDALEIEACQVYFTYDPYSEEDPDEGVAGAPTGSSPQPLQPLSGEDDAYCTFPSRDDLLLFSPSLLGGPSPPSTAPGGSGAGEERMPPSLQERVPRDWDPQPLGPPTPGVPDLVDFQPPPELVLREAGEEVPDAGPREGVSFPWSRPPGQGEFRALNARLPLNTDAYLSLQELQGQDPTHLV
T1 sequence (P31785 23-369): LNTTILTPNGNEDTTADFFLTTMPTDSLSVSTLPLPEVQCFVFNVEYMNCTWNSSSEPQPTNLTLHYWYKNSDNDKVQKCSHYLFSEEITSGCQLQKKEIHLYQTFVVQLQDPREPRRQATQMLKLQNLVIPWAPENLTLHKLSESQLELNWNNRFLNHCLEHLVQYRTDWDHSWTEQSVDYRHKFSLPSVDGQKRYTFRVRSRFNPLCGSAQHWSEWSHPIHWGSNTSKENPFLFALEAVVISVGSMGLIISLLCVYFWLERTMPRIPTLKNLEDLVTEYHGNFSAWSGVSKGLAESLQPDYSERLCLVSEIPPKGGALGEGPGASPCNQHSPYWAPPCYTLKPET
Protocol: (§1) Since the binding of IL-2 to the β and γ subunits of its receptor induces STAT5 phosphorylation, which subsequently leads to dimerization and translocation into the nucleus to promote target gene transcription, this example evaluates the ability of the mutant IL-2 polypeptides to induce signaling through the IL-2 receptor by measuring STAT5 phosphorylation.
Adherent 293EC18 cells were cultured to about 90% confluence using conventional methods. After trypsin digestion, the cells were resuspended in cell culture medium to 4×10^5 cells/ml and 50 µl/well were added to two 96-well cell culture plates. After incubation at 37°C for 48 h, the supernatant was aspirated and fresh culture medium was added. […]
Each IL2 mutant was diluted 4-fold in a gradient manner using PBS buffer, with a total of 11 dilutions and a starting concentration of 65.2 nM. […] Bio-Lite Luciferase Assay System reagents that have been mixed and equilibrated to room temperature were added to the cell culture plates to be tested at 100 µl/well, placed on a microplate shaker at 450 rpm to mix for 2 minutes, then allowed to stand at room temperature for 3 minutes, and the chemiluminescence value was detected with an enzyme plate reader.
(§2) The logarithm of the final concentration of each IL-2 mutant sample was used as the X-axis, and the chemiluminescence detection results were used as the Y-axis for plotting. Data were analyzed using the four-parameter logistic regression model in GraphPad Prism 9. Table 2 EC50 values for the activation of the IL-2αβγ triple receptor by PEG-IL-2 mutants as determined by a reporter gene assay.
According to the method of Example 3, each polyethylene glycol-modified mutant obtained in this example was assessed for the binding preference to the IL2 receptors by a reporter assay. Table 4 EC50 values for the activation of the IL-2αβγ triple receptor by PEG-IL-2 mutants as determined by a reporter gene assay. […]

IL-2βγ dual receptor = target: T2, IL-2βγ dual receptor (Homo sapiens, UniProt P14784+P31785); assay: STAT5 reporter gene assay, activation of IL-2βγ dual receptor in 293EC18/βγ/JAK3/STAT5 cells; type: cell-based
T2 construct: Uniprot P14784 1Met-551Val was constructed into plasmid pcDNA3.1(+); Uniprot P31785 1Met-551Thr was constructed into plasmid pcDNA3.1/zeo; expressed in transfected cells; host or cells: 293EC18 cells, transient co-transfection with pCMV/JAK3 and PGL4.52/STAT5RE
T2 sequence (P14784 27-551): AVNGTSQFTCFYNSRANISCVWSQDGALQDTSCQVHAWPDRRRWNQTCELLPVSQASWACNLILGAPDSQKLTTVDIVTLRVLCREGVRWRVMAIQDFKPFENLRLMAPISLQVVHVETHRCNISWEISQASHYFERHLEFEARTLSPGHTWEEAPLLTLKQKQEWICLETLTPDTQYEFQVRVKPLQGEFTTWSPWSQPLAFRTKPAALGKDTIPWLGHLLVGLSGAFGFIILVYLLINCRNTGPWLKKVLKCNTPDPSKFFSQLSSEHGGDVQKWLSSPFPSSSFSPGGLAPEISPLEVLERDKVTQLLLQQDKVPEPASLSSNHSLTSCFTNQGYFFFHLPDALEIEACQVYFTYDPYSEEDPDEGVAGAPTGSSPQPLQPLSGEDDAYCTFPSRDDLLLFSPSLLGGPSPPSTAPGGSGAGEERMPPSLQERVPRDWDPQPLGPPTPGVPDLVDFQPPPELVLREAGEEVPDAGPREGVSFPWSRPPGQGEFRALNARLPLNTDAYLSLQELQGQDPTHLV
T2 sequence (P31785 23-369): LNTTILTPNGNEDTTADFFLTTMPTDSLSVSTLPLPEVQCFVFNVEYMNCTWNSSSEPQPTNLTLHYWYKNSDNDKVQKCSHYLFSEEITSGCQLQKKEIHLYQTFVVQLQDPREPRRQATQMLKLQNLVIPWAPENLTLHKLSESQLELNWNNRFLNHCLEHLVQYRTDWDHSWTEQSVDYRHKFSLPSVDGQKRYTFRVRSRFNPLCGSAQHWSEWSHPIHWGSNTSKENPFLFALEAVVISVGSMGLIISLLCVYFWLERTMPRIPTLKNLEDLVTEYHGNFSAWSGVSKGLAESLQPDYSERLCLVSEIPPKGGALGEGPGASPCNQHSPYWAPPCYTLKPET
Protocol: as §1
Adherent 293EC18 cells were cultured to about 90% confluence using conventional methods. After trypsin digestion, the cells were resuspended in cell culture medium to 4×10^5 cells/ml and 50 µl/well were added to two 96-well cell culture plates. After incubation at 37°C for 48 h, the supernatant was aspirated and fresh culture medium was added. According to the manufacturer's method, four plasmids, pcDNA3.1(+)/CD122 (constructed by Nanjing Novoacine Biotechnology Co., Ltd, Uniprot P14784 1Met-551Val was constructed into plasmid pcDNA3.1(+)), pcDNA3.1/puro/CD132 (constructed by Nanjing Novoacine Biotechnology Co., Ltd, Uniprot P31785 1Met-551Thr was constructed into plasmid pcDNA3.1/zeo), pCMV/JAK3 (Sino Biological), and PGL4.52/STAT5RE (Promega) were transiently transfected into 293EC18 cells using a cationic transfection reagent (ExFect Transfection Reagent, Vazyme). The obtained cells were named 293EC18/βγ/JAK3/STAT5 cells. Alternatively, five plasmids, pcDNA3.1/zeo/CD25 (constructed by Nanjing Novoacine Biotechnology Co., Ltd, Uniprot P01589 1Met-551Ile constructed into plasmid pcDNA3.1/zeo), pcDNA3.1(+)/CD122 (constructed by Nanjing Novoacine Biotechnology Co., Ltd, Uniprot P14784 1Met-551Val constructed into plasmid pcDNA3.1(+)), pcDNA3.1/puro/CD132 (constructed by Nanjing Novoacine Biotechnology Co., Ltd, UniprotP31785 1Met-551Thr constructed into plasmid pcDNA3.1/zeo), pCMV/JAK3 (Sino Biological), and PGL4.52/STAT5RE (Promega) were transiently transferred into 293EC18 cells, and the obtained cells were named 293EC18/αβγ/JAK3/STAT5 cells. The transfected cells were incubated at 37°C and 5% CO2 for another 6 h.
Each IL2 mutant was diluted 4-fold in a gradient manner using PBS buffer, with a total of 11 dilutions and a starting concentration of 65.2 nM. In the above cell culture plates, 50 µl/well of each of the serially diluted IL2 mutant samples was added in duplicate. Then, the cell culture plate was placed in an incubator at 37°C and 5% CO2 for overnight culture. The cell culture plates were kept at room temperature for 20 ± 5 minutes to equilibrate the plates to room temperature. Bio-Lite Luciferase Assay System reagents that have been mixed and equilibrated to room temperature were added to the cell culture plates to be tested at 100 µl/well, placed on a microplate shaker at 450 rpm to mix for 2 minutes, then allowed to stand at room temperature for 3 minutes, and the chemiluminescence value was detected with an enzyme plate reader.
as §2
According to the method of Example 3, each polyethylene glycol-modified mutant obtained in this example was assessed for the binding preference to the IL2 receptors by a reporter assay. Table 4 EC50 values for the activation of the IL-2αβγ triple receptor by PEG-IL-2 mutants as determined by a reporter gene assay.
Referring to Example 3, the phosphorylation of STAT5 was used to evaluate the ability of the PEG-modified IL-2 mutants having a non-natural amino acid mutation prepared in Example 14 to induce signal transduction via the IL-2 receptor. […]

- activation of the IL-2Rαβγ triple receptor compared with the control IL2-N88R (IL-2αβγ triple receptor): even stronger activation
- activation effect on the IL-2Rβγ dual receptor compared with control IL-2 N88R (IL-2βγ dual receptor; Figure 1, concentration of 65.2 nM): lower activation effects
- activation effect on / affinity to IL-2Rβγ dual receptor compared with control IL-2 N88R (IL-2βγ dual receptor; Figure 2, all concentrations): further reduced the affinity to IL-2Rβγ
B1: 80k-1PEG-IL2-N88R-N33C: IL-2 mutant N88R, N33C with one 80k PEG conjugated to cysteine 33 (conjugate)
chain: APTSSSTKKTQLQLEHLLLDLQMILNGINNYKC(PEG 80 kDa)PKLTRMLTFKFYMPKKATELKHLQCLEEELKPLEEVLNLAQSKNFHLRPRDLISRINVIVLELKGSETTFMCEYADETATIVEFLNRWITFSQSIISTLT
